According to IntAct's records for PubMed 36638908:

B1: Eukaryotic translation initiation factor 4E1 (Drosophila melanogaster (Fruit fly)), P48598 (parent)
chain: MQSDFHRMKNFANPKSMFKTSAPSTEQGRPEPPTSAAAPAEAKDVKPKEDPQETGEPAGNTATTTAPAGDDAVRTEHLYKHPLMNVWTLWYLENDRSKSWEDMQNEITSFDTVEDFWSLYNHIKPPSEIKLGSDYSLFKKNIRPMWEDAANKQGGRWVITLNKSSKTDLDNLWLDVLLCLIGEAFDHSDQICGAVINIRGKSNKISIWTADGNNEEAALEIGHKLRDALRLGRNNSLQYQLHKDTMVKQGSNVKSIYTL
partner: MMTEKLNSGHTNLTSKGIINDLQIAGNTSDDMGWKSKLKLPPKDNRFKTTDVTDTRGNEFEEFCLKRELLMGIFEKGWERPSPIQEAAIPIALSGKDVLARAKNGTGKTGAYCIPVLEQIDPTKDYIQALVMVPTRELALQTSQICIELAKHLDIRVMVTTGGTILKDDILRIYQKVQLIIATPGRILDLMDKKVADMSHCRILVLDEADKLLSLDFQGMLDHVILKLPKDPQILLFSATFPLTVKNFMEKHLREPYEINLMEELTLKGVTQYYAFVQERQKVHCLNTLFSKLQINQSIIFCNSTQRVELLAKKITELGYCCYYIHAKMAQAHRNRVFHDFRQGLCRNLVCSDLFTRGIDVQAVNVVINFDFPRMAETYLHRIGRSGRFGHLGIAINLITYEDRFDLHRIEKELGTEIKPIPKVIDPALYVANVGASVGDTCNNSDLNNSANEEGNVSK

Variants of: B1
Conditions: with ddx6_drome me31B

Row | effect of a mutation on the interaction | Variant
1 | disrupting interaction strength | W117A
